Among the data in article PMC9313797 are Kd values, retold here.

Targets include FV712‐1484; FV712‐1478; FV712‐1487; FV712‐1490; FV712‐1481.
Common to all, as to test: ELISA

Turning to “Recombinant tissue factor pathway inhibitor alpha (TFPIα) (from UniProt P10646-1 29-304) (natural protein)”, the Kd – broadly, a measure of binding affinity in units of concentration – is 0.6 nM with FV712‐1484; 0.2 nM with FV712‐1478; 0.6 nM in the experiment with FV712‐1487; 1 nM with FV712‐1490; 0.2 nM with FV712‐1481.
